Patent US20160046684A1, “Methods and compositions for treatment of PTP1B-related diseases” (BROWN UNIVERSITY, priority 2014, published 2016)
Residue numbers refer to the chain shown, from its start. Names may count otherwise. “Also recorded” adds a separate entry of the source.

B1: Wild-type PTP1B1-301: PTP1B catalytic domain, amino acid residues 1-301 (SEQ ID NO: 2) (protein)
chain: MEMEKEFEQIDKSGSWAAIYQDIRHEASDFPCRVAKLPKNKNRNRYRDVSPFDHSRIKLHQEDNDYINASLIKMEEAQRSYILTQGPLPNTCGHFWEMVWEQKSRGVVMLNRVMEKGSLKCAQYWPQKEEKEMIFEDTNLKLTLISEDIKSYYTVRQLELENLTTQETREILHFHYTTWPDFGVPESPASFLNFLFKVRESGSLSPEHGPVVVHCSAGIGRSGTFCLADTCLLLMDKRKDPSSVDIKKVLLEMRKFRMGLIQTADQLRFSYLAVIEGAKFIMGDSSVQDQWKELSHEDLEP
modifications: The sequence was designed and synthesized
B2: PTP1BY153A: PTP1B1-301 mutant with mutation in the L11 loop (protein, UniProt P18031 1-301, looked up, variant Y153A)
chain: B1 chain with Y153A
B3: PTP1BS295A/E297A: PTP1B1-301 double mutant in the α7 helix (protein, UniProt P18031 1-301, looked up, variant S295A E297A)
chain: B1 chain with S295A, E297A
B4: PTP1BD298A: PTP1B1-301 mutant with point mutation in the α7 helix (protein, UniProt P18031 1-301, looked up, variant D298A)
chain: B1 chain with D298A
B5: PTP1BY152F: PTP1B1-301 mutant with mutation in the L11 loop (protein, UniProt P18031 1-301, looked up, variant Y152F)
chain: B1 chain with Y152F
B6: PTP1BS190A: PTP1B1-301 mutant with mutation in the α3 helix (protein, UniProt P18031 1-301, looked up, variant S190A)
chain: B1 chain with S190A
B7: PTP1BL195A: PTP1B1-301 mutant with mutation in the α3 helix (protein, UniProt P18031 1-301, looked up, variant L195A)
chain: B1 chain with L195A
B8: PTP1BS295A: PTP1B1-301 mutant with point mutation in the α7 helix (protein, UniProt P18031 1-301, looked up, variant S295A)
chain: B1 chain with S295A
B9: PTP1BY153F: PTP1B1-301 mutant with mutation in the L11 loop (protein, UniProt P18031 1-301, looked up, variant Y153F)
chain: B1 chain with Y153F
B10: PTP1BK292A: PTP1B1-301 mutant with point mutation in the α7 helix (protein, UniProt P18031 1-301, looked up, variant K292A)
chain: B1 chain with K292A
B11: PTP1BG283P: PTP1B1-301 mutant with point mutation in the α7 helix (protein, UniProt P18031 1-301, looked up, variant G283P)
chain: B1 chain with G283P
B12: PTP1BY152A: PTP1B1-301 mutant with mutation in the L11 loop (protein, UniProt P18031 1-301, looked up, variant Y152A)
chain: B1 chain with Y152A
B13: PTP1BW291A: PTP1B1-301 mutant with point mutation in the α7 helix (protein, UniProt P18031 1-301, looked up, variant W291A)
chain: B1 chain with W291A
B14: PTP1BF194A: PTP1B1-301 mutant with mutation in the α3 helix (protein, UniProt P18031 1-301, looked up, fragment F194A)
chain: B1 chain with F194A
B15: PTP1BL294A: PTP1B1-301 mutant with point mutation in the α7 helix (protein, UniProt P18031 1-301, looked up, variant L294A)
chain: B1 chain with L294A
B16: PTP1BE297A: PTP1B1-301 mutant with point mutation in the α7 helix (protein, UniProt P18031 1-301, looked up, variant E297A)
chain: B1 chain with E297A
B17: PTP1BF196A: PTP1B1-301 mutant with mutation in the α3 helix (protein, UniProt P18031 1-301, looked up, variant F196A)
chain: B1 chain with F196A
B18: PTP1BYAYA: mutant of PTP1B1-301 having point mutations at Y152 and Y153 (Y152A/Y153A) within the L11 loop (protein)
chain: B1 chain with Y152A, Y153A
modifications: The sequence was designed and synthesized
notes: mutant of PTP1B1-301 having point mutations at Y152 and Y153 (Y152A/Y153A) within the L11 loop
B19: PTP1B1-284/Δ7: truncated PTP1B, residues 1-284, lacking the α7 helix (SEQ ID NO: 3) (protein)
chain: MEMEKEFEQIDKSGSWAAIYQDIRHEASDFPCRVAKLPKNKNRNRYRDVSPFDHSRIKLHQEDNDYINASLIKMEEAQRSYILTQGPLPNTCGHFWEMVWEQKSRGVVMLNRVMEKGSLKCAQYWPQKEEKEMIFEDTNLKLTLISEDIKSYYTVRQLELENLTTQETREILHFHYTTWPDFGVPESPASFLNFLFKVRESGSLSPEHGPVVVHCSAGIGRSGTFCLADTCLLLMDKRKDPSSVDIKKVLLEMRKFRMGLIQTADQLRFSYLAVIEGAKFIMGD
modifications: The sequence was designed and synthesized

How the values were obtained:
PTP1B = assay: Phosphatase activity of PTP1B constructs against pNPP (enzyme assay); format: biochemical, human; details: for Km / kcat: pNPP substrate; for phosphatase activity compared with other constructs (in words): FIG. 24, 25, 32B
Description: Phosphatase activity of PTP1B against the general PTP/DUSP substrate, p-nitrophenyl phosphate (pNPP), was tested in 50 mM HEPES pH 7.5, 150 mM NaCl, 0.5 mM TCEP. 40 μl of enzyme at a 1.5 μM concentration was added to 60 μl of pNPP substrate resuspended in the reaction buffer. See, FIG. 25. The final concentrations of pNPP used in this experiment were […]. The enzyme was incubated with the substrate at 30° C. for 30 min, after which 100 μl of 1 M NaOH was added to a final concentration of 0.5 M NaOH to quench the reaction. Absorbance was measured at 405 nm and the final concentration of p-nitrophenol (pNP) was calculated using the molar extinction coefficient of 18000 M-1 cm-1. A control reaction in which substrate was incubated in the absence of enzyme was subtracted from all other experimental values. All experiments were performed in triplicate.
Enzyme assays were performed at pH 7.5 with 0.15 μM PTP1B to compare the activities of wild-type PTP1B1-301 to mutants with mutations in the L11 loop: PTP1BY152A/F, PTP1BY153A/F, and PTP1BYAYA. See, FIG. 17. […] Ibid. […] Ibid. […] Ibid. […] Ibid. […] Ibid. […] Ibid.
Enzyme assays were performed at pH 7.5 with 0.015 μM PTP1B to compare the activities of wild-type PTP1B1-301 to mutants with mutations in the α3 helix such as PTP1BN193A. See, FIG. 27. […] Ibid. […] Ibid. […] Ibid. […] Ibid. […] Ibid. […] Ibid.
An enzyme assay was used to compare the activity of wild-type PTP1B1-301 to the activity of PTP1B1-284 P185G. See, FIG. 15. Enzyme assays were performed at pH 7.5 with 0.015 μM PTP1B to compare the activities of wild-type PTP1B1-301 to mutants with mutations in the α7 helix. See, FIG. 32A. In one embodiment, these point mutations were made in an amino acid sequence substantially similar to SEQ ID NO: 2.

[1] = Circular dichroism thermal denaturation (melting temperature); format: physicochemical; details: for melting point (Tm): CD spectropolarimetry, thermal denaturation at 208 nm, 2.5 μM protein
Description: Circular dichroism (CD) spectropolarimetry was used to measure the melting temperatures of PTP1BYAYA, PTP1B1-301, and PTP1B1-284. CD measurements were performed on a Jasco J-815 CD spectropolarimeter. PTP1B samples were dialyzed at 4° C. into 10 mM sodium phosphate, pH 6.8, 150 mM NaCl. Samples were then diluted to a protein concentration of 2.5 μM and placed in a 0.2-cm glass cuvette. Wavelength scans were performed in the far-UV region from 260 to 195 nm at 25° C. at a speed of 20 nm/min. Thermal denaturation scans were performed at 208 nm from 25 to 90° C. at a scan speed of 1° C./min. Raw data were processed using the denatured protein analysis routine implemented in the SepctraAnalysis software and converted to mean residue molar ellipticity using the following equation: [θ]=θ/(10×C×1×n), where θ is ellipticity, C is the molar concentration, 1 is the cell path length in centimeters, and n is the number of residues. Plots are the average of three replicate scans.

[2] = pH 7.5, 0.015 μM PTP1B (FIG. 27, 32A, 32B)
[3] = pH 7.5, 0.15 μM PTP1B (FIG. 17)

| Molecule | Km (PTP1B; [2]) | kcat (PTP1B; [2]) | Km (PTP1B; [3]) | kcat (PTP1B; [3]) | also measured |
| --- | --- | --- | --- | --- | --- |
| B1 | 460 ± 60 µM | 6.2 ± 0.3 s⁻¹ | 460 ± 60 µM | 6.2 ± 0.3 s⁻¹ | melting point (Tm) [1]: 55.46 °C |
| B2 | – | – | 930 ± 180 µM | 3.6 ± 0.29 s⁻¹ | melting point (Tm) [1]: 53.75 °C |
| B3 | 580 ± 130 µM | 2.6 ± 0.13 s⁻¹ | – | – | – |
| B4 | 480 ± 100 µM | 6.3 ± 0.4 s⁻¹ | – | – | – |
| B5 | – | – | 950 ± 40 µM | 3.4 ± 0.1 s⁻¹ | – |
| B6 | 370 ± 50 µM | 6.1 ± 0.3 s⁻¹ | – | – | – |
| B7 | 290 ± 30 µM | 4.1 ± 0.1 s⁻¹ | – | – | – |
| B8 | 800 ± 70 µM | 4.5 ± 0.1 s⁻¹ | – | – | – |
| B9 | 620 ± 70 µM | 6.0 ± 0.2 s⁻¹ | 900 ± 80 µM | 3.4 ± 0.3 s⁻¹ | – |
| B10 | 380 ± 50 µM | 6.1 ± 0.3 s⁻¹ | – | – | – |
| B11 | 850 ± 70 µM | 4.9 ± 0.2 s⁻¹ | – | – | – |
| B12 | – | – | 960 ± 40 µM | 3.0 ± 0.06 s⁻¹ | melting point (Tm) [1]: 53.89 °C |
| B13 | 990 ± 150 µM | 4.5 ± 0.3 s⁻¹ | – | – | – |
| B14 | 390 ± 50 µM | 5.3 ± 0.3 s⁻¹ | – | – | – |
| B15 | 730 ± 50 µM | 5.1 ± 0.1 s⁻¹ | – | – | – |
| B16 | 720 ± 120 µM | 4.6 ± 0.3 s⁻¹ | – | – | – |
| B17 | 320 ± 40 µM | 4.2 ± 0.2 s⁻¹ | – | – | – |
| B18 | – | – | 450 ± 40 µM | 1.8 ± 0.05 s⁻¹ | phosphatase activity compared with other constructs (in words) (PTP1B): much lower; melting point (Tm) [1]: 50.41 °C; melting temperature lower than PTP1B1-284 ([1]; difference to PTP1B1-284): about 4.5 °C; melting temperature lower than for PTP1B1-301 ([1]; difference to PTP1B1-301): about 5 °C |
| B19 | 970 ± 100 µM | 1.7 ± 0.07 s⁻¹ | – | – | phosphatase activity compared with other constructs (in words) (PTP1B; listed as PTP1BΔ7): lack the activity exhibited by wild-type PTP1B1; also recorded: much lower; melting point (Tm) [1]: 54.9 °C; melting point (Tm) ([1]; listed as PTP1B1-284): 54.87 °C |
